In article PMC2810336, “Mutational Analysis of Highly Conserved Residues in the Phage PhiC31 Integrase Reveals Key Amino Acids Necessary for the DNA Recombination”:

Assays:
Test in all cases: EMSA; 400 nM protein; 50 ng/ul Poly (competitor (so in the source)), 0.05% NP-40, 50 mM KCl, 5 mM MgCl2, 10 mM EDTA, 20 ul, 0.4 ng (16 fmol) probe; 30 min at room temperature (Methods) or 30 C; pH not stated; synapsis 2 h at 30 C
Settings in all cases: protein: recombinant; tags: C-terminal His; chain copies: 2; label: biotin, double-strand end-labeled; blunt
phiC31 integrase Y393A = molecular target: T1, phiC31 integrase Y393A (Streptomyces phage phiC31, UniProt Q38194 1-613, Y393A)
T1 sequence: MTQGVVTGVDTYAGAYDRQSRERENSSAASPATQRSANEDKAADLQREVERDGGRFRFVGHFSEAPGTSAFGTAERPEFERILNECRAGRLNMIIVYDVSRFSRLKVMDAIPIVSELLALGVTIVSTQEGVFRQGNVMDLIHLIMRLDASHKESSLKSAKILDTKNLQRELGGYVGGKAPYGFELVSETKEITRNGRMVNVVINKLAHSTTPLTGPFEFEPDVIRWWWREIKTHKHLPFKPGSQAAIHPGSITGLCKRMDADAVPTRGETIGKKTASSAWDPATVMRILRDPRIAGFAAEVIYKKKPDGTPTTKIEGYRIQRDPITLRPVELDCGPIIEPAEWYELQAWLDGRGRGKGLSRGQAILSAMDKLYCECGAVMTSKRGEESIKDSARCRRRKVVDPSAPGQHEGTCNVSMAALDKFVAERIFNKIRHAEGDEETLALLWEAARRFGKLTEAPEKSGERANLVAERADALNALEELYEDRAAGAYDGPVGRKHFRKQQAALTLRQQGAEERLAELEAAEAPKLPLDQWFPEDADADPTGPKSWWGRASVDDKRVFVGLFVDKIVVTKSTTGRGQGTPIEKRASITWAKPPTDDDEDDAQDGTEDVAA

phiC31 integrase C374A = molecular target: T2, phiC31 integrase C374A (Streptomyces phage phiC31, UniProt Q38194 1-613, C374A)
T2 sequence: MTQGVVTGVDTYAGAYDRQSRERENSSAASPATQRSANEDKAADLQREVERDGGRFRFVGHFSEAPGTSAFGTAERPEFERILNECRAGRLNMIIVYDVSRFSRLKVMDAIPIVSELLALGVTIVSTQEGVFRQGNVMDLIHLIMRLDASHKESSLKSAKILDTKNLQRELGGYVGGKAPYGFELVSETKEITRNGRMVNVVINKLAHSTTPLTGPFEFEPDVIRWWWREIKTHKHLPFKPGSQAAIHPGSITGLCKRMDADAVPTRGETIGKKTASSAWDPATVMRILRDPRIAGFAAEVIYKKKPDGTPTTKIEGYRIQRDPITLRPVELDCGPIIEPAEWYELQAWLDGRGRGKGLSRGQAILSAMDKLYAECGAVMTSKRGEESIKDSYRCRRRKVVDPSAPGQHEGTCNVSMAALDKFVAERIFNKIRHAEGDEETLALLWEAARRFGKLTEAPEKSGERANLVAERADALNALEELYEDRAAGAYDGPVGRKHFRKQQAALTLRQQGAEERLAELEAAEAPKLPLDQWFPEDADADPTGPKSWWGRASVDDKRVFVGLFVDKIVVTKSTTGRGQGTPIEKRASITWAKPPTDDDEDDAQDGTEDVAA

phiC31 integrase V566A = molecular target: T3, phiC31 integrase V566A (Streptomyces phage phiC31, UniProt Q38194 1-613, V566A)
T3 sequence: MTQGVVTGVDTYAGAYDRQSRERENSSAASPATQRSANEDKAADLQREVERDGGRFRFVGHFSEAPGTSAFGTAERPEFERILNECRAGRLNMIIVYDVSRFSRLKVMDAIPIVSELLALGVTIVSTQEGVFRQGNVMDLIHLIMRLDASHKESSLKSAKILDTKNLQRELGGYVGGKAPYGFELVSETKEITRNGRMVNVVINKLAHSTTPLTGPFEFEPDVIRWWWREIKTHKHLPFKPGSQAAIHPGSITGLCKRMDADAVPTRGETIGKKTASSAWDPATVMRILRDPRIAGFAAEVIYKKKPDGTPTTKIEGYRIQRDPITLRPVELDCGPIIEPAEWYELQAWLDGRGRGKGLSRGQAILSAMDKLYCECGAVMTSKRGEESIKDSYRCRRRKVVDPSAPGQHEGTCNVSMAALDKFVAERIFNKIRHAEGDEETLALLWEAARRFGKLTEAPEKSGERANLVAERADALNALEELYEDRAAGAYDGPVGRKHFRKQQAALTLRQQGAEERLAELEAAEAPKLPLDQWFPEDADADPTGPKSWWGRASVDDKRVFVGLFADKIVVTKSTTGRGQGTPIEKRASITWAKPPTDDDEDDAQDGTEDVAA

Measured: binding signal

B1: attB 41 bp (dsDNA)
DNA 1: CGGGTGCCAGGGCGTGCCCTTGGGCTCCCCGGGCGCGTACT
DNA 2: AGTACGCGCCCGGGGAGCCCAAGGGCACGCCCTGGCACCCG
0 % of WT: all assays above
